Stoichiometry N data for two substances are collected here from PMC11009304.

Experiment [1] addresses hPIV3 L–P polymerase complex (L–P4) (human parainfluenza virus type 3 (hPIV3)) (UniProt P12577). Put plainly: SEC; analytical SEC of the purified L–P complex, Superdex 200 Increase 5/150 GL, buffer B (20 mM Tris-HCl pH 7.5, 300 mM NaCl, 1% glycerol, 6 mM MgSO4, 1 mM DTT), calibrated with standard markers. On the technique in general: SEC sorts molecules by how far they enter the pores of the column.

For experiment [2] the target is unchanged. Put plainly: SEC-MALS; purified L–P complex on an XBridge Protein BEH SEC column (200 Å) with a DAWN MALS detector, 0.5 ml/min, buffer B; bovine serum albumin as control.
For experiment [3], the target named is human parainfluenza virus type 3 (hPIV3) phosphoprotein (P) (human parainfluenza virus type 3 (hPIV3)) (UniProt P06162). Put plainly: cryo-EM structure.

With “hPIV3 L–P polymerase complex (L–P4) (from UniProt P12577;P06162)”, the stoichiometry N in experiment [1] and in experiment [2] was 2 each time. On to “human parainfluenza virus type 3 (hPIV3) phosphoprotein (P) (from UniProt P06162 1-604) (natural protein)”, for which the stoichiometry N in experiment [3] was 4.

As usually defined, the stoichiometry N is a count of units in the complex or per binding partner.
